Assay results: patent US9221867B2, “Method for transporting a compound across the blood-brain barrier” (Angiochem Inc., priority 2003, dated 2015)
Entries after “also recorded” stand apart in the source; their conditions may differ. Like-named read-outs stand apart in the source and are kept apart here. Where a SMILES comes first, the peptide text is derived from it.

Key:
[1] = tested on: endothelial cell monolayers (in vitro blood-brain barrier model)
Description: (§1) The permeability coefficient (Pe) was calculated as:
(§2) At the end of the experiments, amounts of the radiotracers in the basolateral compartment were measured in a liquid scintillation counter. The permeability coefficient (Pe) for sucrose was calculated as previously described (Dehouck, M. P., Jolliet-Riant, P., Brée, F., Fruchart, J. C., Cecchelli, R., Tillement, J. P., J. Neurochem. 58:1790-1797, 1992) using filters coated or non-coated with EC.
(§3) The transport of Angio-pep1 from the apical-to-basolateral side of inserts covered with or without endothelial cell monolayers was measured. The results are expressed as the clearance of Angio-pep1 as a function of time. The slopes correspond to the permeability of the peptide through the filter alone (Psf) and to the total permeability of the endothelial cell monolayers (Pst).
(§4) The permeability coefficients for Angio-pep1, aprotinin, leptin and transferrin were determined using the in vitro blood-brain barrier model. The permeability coefficient (Pe) was calculated as described above.

[2] = in vitro; settings: bovine
Description: as §1, §2, §3, §4

[3] = tested on: bovine brain capillary endothelial cells (BBCECs)
Description: (§5) The model consists of a co-culture of bovine brain capillary endothelial cells and rat glial cells.
(§6) The in vitro model of BBB was established by using a co-culture of BBCECs and astrocytes. Prior to cell culture, plate inserts (Millicell-PC 3.0 μM; 30-mm diameter) were coated on the upper side with rat tail collagen. They were then set in six-well microplates containing the astrocytes and BBCECs were plated on the upper side of the filters in 2 mL of co-culture medium. This BBCEC medium was changed three times a week. Under these conditions, differentiated BBCECs formed a confluent monolayer 7 days later. Experiments were performed between 5 and 7 days after confluence was reached. The permeability coefficient for sucrose was measured to verify the endothelial permeability.
(§7) Briefly, after removing the meninges, the brain tissue was forced gently through a 82 μm nylon sieve. Astrocytes were plated on six-well microplates at a concentration of 1.2×10^5 cells/mL in 2 mL of optimal culture medium (DMEM) supplemented with 10% heat inactivated fetal bovine serum. The medium was changed twice a week.
(§8) Bovine brain capillary endothelial cells (BBCECs) were obtained from Cellial Technologies. The cells were cultured in the presence of DMEM medium supplemented with 10% (v/v) horse serum and 10% heat-inactivated calf serum, 2 mM of glutamine, 50 μg/mL of gentamycin, and 1 ng/mL of basic fibroblast growth factor, added every other day.
(§9) One insert covered with BBCECs was set into a six-well microplate with 2 mL of Ringer-Hepes and was pre-incubated for 2 h at 37° C. [^125I]-aprotinin, [^125I]-p97, [^125I]-ceruloplasmin or [^125I]-transferrin (250 nM final concentration) was added to the upper side of the filter covered with cells. At various times, the insert was transferred to another well to avoid a possible reendocytosis of [^125I]-proteins by the abluminal side of the BBCECs. At the end of experiment, [^125I]-proteins were assessed in 500 μL of the lower chamber of well by TCA precipitation.
(§10) Aprotinin, p97 and bovine holo-transferrin were iodinated with standard procedures using iodo-beads from Sigma™. Bovine holo-transferrin was diluted in 0.1M phosphate buffer, pH 6.5 (PB). P97 obtained from Synapse Technologies in neutralized citrate at pH 7.0 was dialyzed against this PB. Two iodo-beads were used for each protein. These beads were washed twice with 3 mL of PB on a Whatman™ filter and resuspended in 60 μL of PB. ^125I (1 mCi) from Amersham-Pharmacia biotech was added to the bead suspension for 5 minutes at room temperature. The iodination for each protein was initiated by the addition of 100 μg (80-100 μL).

[4] = tested on: bovine brain capillary endothelial cells (BBCECs); assay: Transcytosis of 125I-proteins across BBCEC monolayers (in vitro blood-brain barrier model); settings: for Transcytosis: across in vitro BBB model; for Ratios Aprotinin/Protein: aprotinin transcytosis divided by that of the named protein
Description: as §5, §6, §7, §8, §9, §10

[5] = tested on: endothelial cell monolayers (in vitro blood-brain barrier model); assay: Permeability coefficient (Pe) of proteins in the in vitro blood-brain barrier model; settings: for Ratios (permeability coefficients): Pe of Angio-pep1 divided by Pe of the named protein; for Permeability coefficient (Pe): in vitro blood-brain barrier model
Description: as §1, §2, §3, §4

[6] = tested on: mouse brain; assay: In situ mouse brain perfusion (apparent volume of distribution); settings: 10 min perfusion
Description: The uptake of [^125I]-aprotinin to the luminal side of mouse brain capillaries was measured using the in situ brain perfusion method adapted in our laboratory for the study of drug uptake in the mouse brain (Dagenais et al., 2000, J. Cereb. Blood Flow Metab. 20(2):381-386). Briefly, the right common carotid of ketamine/xylazine (140/8 mg/kg i.p.) anesthetized mice was exposed and ligated at the level of the bifurcation of the common carotid, rostral to the occipital artery. The common carotid was then catheterized rostrally with polyethylene tubing (0.30 mm i.d.×0.70 mm o.d.) filled with heparin (25 U/ml) and mounted on a 26-gauge needle. The syringe containing the perfusion fluid (10 nM of [^125I]-aprotinin in Krebs/bicarbonate buffer at a pH7.4 gassed with 95% O2 and 5% CO2) was placed in an infusion pump (Harvard pump PHD 2000; Harvard Apparatus) and connected to the catheter. […]
Aprotinin uptake was expressed as the volume of distribution (Vd) from the following equation: Vd=Q*br/C*pf where Q*br is the calculated quantity of [^125I]-aprotinin per gram of right brain hemisphere and C*pf is the labeled tracer concentration measured in the perfusate.
The brain apparent volume of distribution was measured for [^125I]-transferrin, [^125I]-aprotinin and [^125I]-Angio-pep1. […]

[7] = tested on: BBCEC monolayers; assay: SDS-PAGE/autoradiography of protein integrity after transcytosis across BBCEC monolayers; format: in vitro ADME, bovine; settings: 250 nM, SDS-PAGE, FIG. 4
Description: At each time point, filters were put in the next well of the 6-well plates. At the end of the experiment, aliquots were taken in each well and submitted to SDS-PAGE. Gels were then submitted to detection by autoradiography. The results, presented in FIG. 4, indicate that aprotinin integrity is not affected by its transcytosis across BBCEC monolayers.

With `C[C@@H](O)[C@H](N)C(=O)N[C@@H](Cc1ccccc1)C(=O)N[C@@H](Cc1ccccc1)C(=O)N[C@@H](Cc1ccc(O)cc1)C(=O)NCC(=O)NCC(=O)N[C@@H](CS)C(=O)N[C@@H](CCCNC(=N)N)C(=O)NCC(=O)N[C@@H](CCCCN)C(=O)N[C@@H](CCCNC(=N)N)C(=O)N[C@@H](CC(N)=O)C(=O)N[C@@H](CC(N)=O)C(=O)N[C@@H](Cc1ccccc1)C(=O)N[C@@H](CCCCN)C(=O)N[C@H](C(=O)N[C@@H](CCC(=O)O)C(=O)N[C@@H](CCC(=O)O)C(=O)N[C@@H](Cc1ccc(O)cc1)C(=O)O)[C@@H](C)O` [Angio-pep1] (H-TFFYGGCRGKRNNFKTEEY-OH; N-terminus and C-terminus assumed) the “Ratios (permeability coefficients)” value [1] was 1, the “Permeability coefficient (Pe)” value ([1]; bovine) was 200 nm/s and the Papp A→B [2] was 200 nm/s. The “transcytosis capacity compared with other proteins” value [3] was “higher than that of other proteins including aprotinin, leptin and transferrin”.
For “Streptavidin: comparison protein in transcytosis experiment [reference compound]”, the Transcytosis [4] was 0.09 pmol/h/cm^2 and the “Ratios Aprotinin/Protein” value [4] was 30.
For aprotinin, the Transcytosis [4] was 2.7 pmol/h/cm^2, the “Ratios Aprotinin/Protein” value [4] was 1 and the “transcytosis capacity compared with other proteins” value ([4]; in vitro blood-brain barrier model) was “higher transcytosis capacity than transferrin, p97 or ceruloplasmin”. For the same molecule, the “transendothelial transport / transcytosis of aprotinin higher than that of other proteins” value ([4]; versus other tested proteins incl. transferrin, ceruloplasmin) was 10-50 fold, the “Ratios (permeability coefficients)” value [5] was 7.5 and the “Permeability coefficient (Pe)” value [5] was 26.7 nm/s. For the same molecule, the “brain uptake / apparent volume of distribution” value [6] was “higher brain uptake; also recorded: higher than that of transferrin” and the “integrity of the protein after transcytosis across BBCEC monolayers” value [7] was “not affected”.
In the case of “Leptin: comparison protein for permeability coefficient [reference compound]”, the “Ratios (permeability coefficients)” value [5] is reported as 21 and the “Permeability coefficient (Pe)” value [5] is reported as 9.17 nm/s.
